This is an account of results in publication PMC9452301 (Nature, 2022).

The target of the assay is protein phosphatase 1 catalytic subunit, γ-isoform (PPP1CCγ) (human, UniProt P36873 1-323). As to the kind of experiment: cell-based or functional assay.
Sequence of protein phosphatase 1 catalytic subunit, γ-isoform (PPP1CCγ) (P36873 whole entry, canonical isoform): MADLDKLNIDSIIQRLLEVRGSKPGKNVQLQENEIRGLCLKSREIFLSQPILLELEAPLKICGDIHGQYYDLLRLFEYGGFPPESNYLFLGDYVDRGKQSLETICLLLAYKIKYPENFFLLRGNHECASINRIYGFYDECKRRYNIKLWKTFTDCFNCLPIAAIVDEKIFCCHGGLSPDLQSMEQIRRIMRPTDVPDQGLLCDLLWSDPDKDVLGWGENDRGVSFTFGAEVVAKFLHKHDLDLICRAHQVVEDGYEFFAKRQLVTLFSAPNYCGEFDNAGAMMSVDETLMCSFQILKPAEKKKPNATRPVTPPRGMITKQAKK

B1: N-terminally truncated SHOC2 (SHOC2-ΔN; residues 91–582) (domain or fragment)
chain: IKELNKCREENSMRLDLSKRSIHILPSSIKELTQLTELYLYSNKLQSLPAEVGCLVNLMTLALSENSLTSLPDSLDNLKKLRMLDLRHNKLREIPSVVYRLDSLTTLYLRFNRITTVEKDIKNLSKLSMLSIRENKIKQLPAEIGELCNLITLDVAHNQLEHLPKEIGNCTQITNLDLQHNELLDLPDTIGNLSSLSRLGLRYNRLSAIPRSLAKCSALEELNLENNNISTLPESLLSSLVKLNSLTLARNCFQLYPVGGPSQFSTIYSLNMEHNRINKIPFGIFSRAKVLSKLNMKDNQLTSLPLDFGTWTSMVELNLATNQLTKIPEDVSGLVSLEVLILSNNLLKKLPHGLGNLRKLRELDLEENKLESLPNEIAYLKDLQKLVLTNNQLTTLPRGIGHLTNLTHLGLGENLLTHLPEEIGTLENLEELYLNDNPNLHSLPFELALCSKLSIMSIENCPLSHLPPQIVAGGPSFIIQFLKMQGPYRAMV
On to B1, for which the “Kd^app of SHOC2 from peptide dephosphorylation (25 nM PP1C, 1 µM MRAS(GCP))” value was ~40 fold weaker than full-length SHOC2.
